Measurements as given in US6955900B1, “Methods for producing polypeptide binding sites, monoclonal antibodies and compositions thereof” (The Scripps Research Institute, priority 1993, dated 2005).

Columns and labels:
[1] = molecular target: T1, αvβ3 (Homo sapiens, UniProt P05106+P06756); assay: dissociation of 125I-ligand from purified αvβ3; conditions: two hour dissociation after four hours binding
T1 construct: human placentas were obtained, cut into small pieces and extracted; from tissue
Procedure: The binding of Fab 9 is shown as an example in this analysis, but its binding behavior was essentially identical to that of the MTF antibodies. The ability of ^125I-Fab 9 to dissociate from purified αvβ3 was compared to that of ^125I-vitronectin in purified ligand-receptor binding assays performed as described in Example 5B. Both ligands were incubated with purified αvβ3 for four hours. Then buffer containing radioligands was replaced with binding buffer lacking ligand to allow dissociation. An effort was also made to promote dissociation by adding 10 uM GRGDSP (SEQ ID NO 66) after the binding step. […] Following a two hour incubation to allow dissociation, buffer was removed and the amount of ^125I-ligand remaining bound to integrin was measured. The remaining bound ligand was compared to the amount of ligand bound at the beginning of the dissociation step.

[2] = system: M21 melanoma cells; assay: adhesion of M21 melanoma cells to immobilized Fab or vitronectin; type: cell-based, human
Procedure: When Fab 9 that contained an RGD binding site was used in cell adhesion assays, it blocked the melanoma cell adhesion to immobilized vitronectin with an IC50 of 4 nM in contrast to the framework antibody pMT12 that had no effect on cell adhesion. […] This finding provides further evidence that Fab 9 is specific to beta 3 integrins. In similar assays, Fab 9 was compared to vitronectin in the ability to support cellular adhesion. Both proteins supported the binding of cells saturating at approximately 5 ug/ml of Fab or vitronectin.
This assay, performed as described in Example 4, was performed with whole cell adhesion assays using M21 melanoma cells because they adhere to RGD-ligands primarily via αvβ3. M21 cells were allowed to adhere to a concentration range from 1 to 10 ug/ml of immobilized Fab 9 and MTF-10.

T1 sequence (P06756 31-889 limits assumed): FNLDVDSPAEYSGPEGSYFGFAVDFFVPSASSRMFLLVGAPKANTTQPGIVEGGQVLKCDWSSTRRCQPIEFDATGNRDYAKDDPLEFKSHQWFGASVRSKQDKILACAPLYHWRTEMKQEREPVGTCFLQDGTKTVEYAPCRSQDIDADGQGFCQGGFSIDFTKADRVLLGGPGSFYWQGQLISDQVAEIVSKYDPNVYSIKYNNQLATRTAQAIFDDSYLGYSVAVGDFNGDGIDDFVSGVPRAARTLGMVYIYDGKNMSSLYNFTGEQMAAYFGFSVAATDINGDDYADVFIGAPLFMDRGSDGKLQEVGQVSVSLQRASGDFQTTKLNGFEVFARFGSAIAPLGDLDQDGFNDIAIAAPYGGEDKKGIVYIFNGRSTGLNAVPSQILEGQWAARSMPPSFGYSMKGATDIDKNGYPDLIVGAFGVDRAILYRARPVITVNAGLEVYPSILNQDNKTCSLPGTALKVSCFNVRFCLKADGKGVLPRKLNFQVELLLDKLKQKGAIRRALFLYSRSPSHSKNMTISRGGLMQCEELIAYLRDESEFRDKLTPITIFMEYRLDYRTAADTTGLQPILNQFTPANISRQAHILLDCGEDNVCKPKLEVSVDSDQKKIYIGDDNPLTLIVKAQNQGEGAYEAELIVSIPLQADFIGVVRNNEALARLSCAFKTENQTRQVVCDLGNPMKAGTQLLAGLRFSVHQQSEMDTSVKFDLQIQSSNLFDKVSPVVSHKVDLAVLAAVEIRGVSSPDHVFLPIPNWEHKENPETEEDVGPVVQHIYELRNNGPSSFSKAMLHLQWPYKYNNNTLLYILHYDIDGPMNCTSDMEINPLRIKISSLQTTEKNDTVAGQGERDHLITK
T1 sequence (P06756 891-1048 partner limits assumed): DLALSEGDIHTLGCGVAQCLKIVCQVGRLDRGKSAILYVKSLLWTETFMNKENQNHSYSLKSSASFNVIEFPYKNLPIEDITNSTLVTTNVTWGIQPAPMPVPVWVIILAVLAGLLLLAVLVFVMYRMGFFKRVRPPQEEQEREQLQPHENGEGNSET
T1 sequence (P05106 27-788): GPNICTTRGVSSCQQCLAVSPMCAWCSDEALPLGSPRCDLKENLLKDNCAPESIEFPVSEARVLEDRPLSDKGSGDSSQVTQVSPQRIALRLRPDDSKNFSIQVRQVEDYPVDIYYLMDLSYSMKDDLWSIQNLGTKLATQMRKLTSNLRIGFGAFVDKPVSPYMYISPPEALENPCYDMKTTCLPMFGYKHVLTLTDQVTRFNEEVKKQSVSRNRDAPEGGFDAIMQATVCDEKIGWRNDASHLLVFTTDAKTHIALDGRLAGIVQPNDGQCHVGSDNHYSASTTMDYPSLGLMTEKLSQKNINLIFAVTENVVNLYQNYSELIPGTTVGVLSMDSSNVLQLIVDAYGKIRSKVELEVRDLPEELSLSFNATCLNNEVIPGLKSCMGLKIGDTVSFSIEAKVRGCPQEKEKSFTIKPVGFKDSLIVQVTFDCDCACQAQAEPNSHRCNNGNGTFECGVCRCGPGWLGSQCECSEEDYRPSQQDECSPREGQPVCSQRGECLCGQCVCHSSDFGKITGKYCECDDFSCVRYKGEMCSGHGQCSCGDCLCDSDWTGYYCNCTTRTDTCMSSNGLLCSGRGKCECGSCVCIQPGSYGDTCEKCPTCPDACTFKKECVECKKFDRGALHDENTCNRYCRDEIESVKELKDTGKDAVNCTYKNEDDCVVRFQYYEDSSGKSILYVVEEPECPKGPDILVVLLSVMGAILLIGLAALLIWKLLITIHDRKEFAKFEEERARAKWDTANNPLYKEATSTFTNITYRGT

bound ligand that remained associated with αvβ3 [1]: greater than 65%
Substance: vitronectin: natural high affinity ligand of αvβ3
coating concentration at which supported cell binding saturates [2]: approximately 5 ug/ml
